Measurements from the DeepSol protein solubility set.

Assay: soluble on expression in E. coli; label from the status in PepcDB or PDB records

Sequence | soluble on expression in E. coli
MVITKHFAIHGKSYRRKLIKYILNPEKTNNLALVSDYGMKNFLDFPSYEEMVQMYHENFISNDTLYDFRHDRMEENQRKIHAHHIIQSFSPEDHITPEQINRIGYETVKELTGGKFRFIVATHVDKDHLHNHIIINSVDSNSDKKLKWDYKVERNLRMISDRFSKIAGAKIIENRYSHQRYEVYRKTNHKYELKQRLYFLMEHSRDFEDFKKNAPLLHVEMDFRHKHATFFITDSTMKQVVRGKQLNRKQPYTEEFFKNYFAKREIESLMEFLLLKVENMDDLLQKAKLFGLTINPKQKHVSFQFAGVEVKETELDQKNLYDVEFFQDYFKNRKDWQAPETEDFVQLYQEEKLSKEKELPSDEKFWESYQEFKSNRDAVHEFEVELSLNQIEKVVDDGIYVKVKFGIRQEGLIFVPNMQLDMEEDKVKVFIRETSSYYVYHKDAAEKNCYMKGRTLIRQFSYENQTIPLRRKATVDMIKEKIAEVDALIELEVENQSYVTIKDELVHELAASELRINELQERMSTLNQVAEYLLASVESKQEMKLNLSKLNITENISANIVEKKLKSLGNQLELERGRYEKMVVRLDKFINRLNTGLSKGDGIDFQK | not soluble
MNILQNENLIIESSSFGAELTKIFSKKYDKNILWDGNKKYWGRQSPILFPIVGKLFDNETIIEENLYSMTQHGFARDMDFEIVDKGDTFVTYKLTDNESTLKKYPYSFELIINYTLNDNSIEVEWIVKNTDSKDIFFSIGGHPAFNLPFYKQNDFSKHYLEFKSKNDVEKINLNGSFTDDIIPIGKLKNLQLNPEVFKNDALIYTNIDEVSICNNDGSKYVTISMEDFPLVGIWTPYYSETNSTAPFLCIEPWYGLADSINSNKIYKDKKFINKLSKGKVFTASYNINIHLEHHHHHH | soluble
SRGMTPGSRLIDYQLIDSTEELAAILGCGHPSSIHKITRVRLANDIPMAIESSHIPFELAGELNESHFQSSIYDHIERYNSIPISRAKQELEPSAATTEEANILGIQKGAPVLLIKRTTYLQNGTAFEHAKSVYRGDRYTFVHYMDRLS | not soluble
MNSITVRNATFTWARSDPPTLNGITFSIPEGALVAVVGQVGCGKSSLLSALLAEMDKVEGHVAIKGSVAYVPQQAWIQNDSLRENILFGCQLEEPYYRSVIQACALLPDLEILPSGDRTEIGEKGVNLSGGQKQRVSLARAVYSNADIYLFDDPLSAVDAHVGKHIFENVIGPKGMLKNKTRILVTHSMSYLPQVDVIIVMSGGKISEMGSYQELLARDGAFAEFLRTYASHHHHHH | soluble
GPGSMKAQPKQIGCYLVTEASREESFVVLEGHEVDNPNRHVRAKALLEDRAAPENISVRIGIEENLLGRSVAYPRARCRALEQEEGKSVRASNDSLAELWRARPL | soluble
MLIELLISITVLASILVSCKKEKNEAAKLKPRGFDRKSSGAPAPAGANLVNKSGGSGGGSGGSGDANRLLKREIKEVKMEERSADDNETINDVKSNWGTV | not soluble
MEQRDMKTVFLLDRSAKFVENCNETFDVTIREGPKQKKLQFEKTIWTWCLEGIFEMHRILSDVYPRGTLQLRFALADFMGKMLDTQWTDGFLTREELGELIETVSRPSEANTDITPIGGLTMAIEALAVQSPEQRNYNYDVRYSANKRTAQNSEVIRVTRELRGLPPLPTVQNAGNLIMYTRLNTQEEMEQLQTEIVELVVSRNKIADAPSNKTFCPITSLRLFIVNYYATGDECTVKTHSLQAHPDLPLLKIWVISRKAADMCDAIHSLLVDAFDLGSTTVTKIPMKEDNRGSSNYDVELFHSGKVHAMLKENNLIDTVSKKGDSDKGVTYDTMRLTWTTAPKTKWSLFPYHGAAVPCTTAQAYSRPSACLTQFVRDGRCVMLDSEKTTELGMNMHEKLVSHLLIANRGRIFIQEIDFMQKKADRIAGKLKRPRVLHAPEDPINMNQLRHTYKQLELRFVAKNRMDDNLTEKETEKWTGLKNSDLKKRFQRISKNIPCFAADTFIFNEKVTPKLEPLISLITKTTLSENDVDKCKQCIVTLYQMKNERQYVISPESDIKISSVRNLKDPDEQLRVTFVELAKHIMKYVTFSEKHKEIYKTYMTTLNVDKLLEVDLDDDEAVDKMFVKFSFFGKSDTASKTDEDEDSSDDEDEEILKSPALKKLFGYVDARDERKYEELYGQGFKKKKPEVEEKPIVMAKEIKVDIFSNMCDMLEVKESKIRREFVGRETHGNIAPLYPQLAEKLERPASPAATERGTERVRNTAERGGSGTPPPGGRRNFQ | not soluble
MGSDKIHHHHHHMNIAMFSDTYAPQINGVATSIRVYKKKLTERGHKVVVVAPSAPEEEKDVFVVRSIPFPFEPQHRISIASTKNILEFMRENNVQIIHSHSPFFIGFKALRVQEEMGLPHVHTYHTLLPEYRHYIPKPFTPPKRLVEHFSAWFCNMTNVVIAPTEDIKRELESYGVKRPIEVLPTGIEVEKFEVEAPEELKRKWNPEGKKVVLYAGRIAKEKNLDFLLRVFESLNAPGIAFIMVGDGPEREEVEEFAKEKGLDLKITGFVPHDEIPLYYKLGDVFVFASKTETQGLVLLEALASGLPVVALKWKGVKDVLKNCEAAVLIEEENERLFAEKIKHILKNDRLREELSTKGREFVRKEWSVDRFVQRLEEIYTRAIEEGPVEINTSLMIKEFVKFEKLKEFFSKIEDRIWR | not soluble
GIDPFTKANSEACRDGLRAVMECRNVTHLLQQELTEAQKGFQDVEAQAATCNHTVMALMASLDAEKAQGQKKVEELEGEITTLNHKLQDASAEVERLRRENQVLSVRIADKK | soluble
MSRARCERCLRPAGHCLCPLIPQLPSRTRVLLLQHPSEVNHALNTARLAALGLNNAELVVGEVFEELPALLDQPGYRACLLFPADDARPLQAYAETDVPLLLVVPDGTWRKARKLLHLNPLLAALPRVTLATGVESRYRLRKAPGPGALSTVEAIVQALQVLEAPASFEPLLRPFEALIEGQIAAMGEDTYQRNHAKSAAALEHHHHHH | not soluble
MSLHGKLIQFHKFGNPKDVLQVEYKNIEPLKDNEVFVRMLVRPINPSDLIPITGAYAHRIPLPNIPGYEGVGIVENVGAFVSRELIGKRVLPLRGEGTWQEYVKTSADFVVPIPDSIDDFTAAQMYINPLTAWVTCTETLNLQRNDVLLVNACGSAIGHLFAQLSQILNFRLIAVTRNNKHTEELLRLGAAYVIDTSTAPLYETVMELTNGIGADAAIDSIGGPDGNELAFSLRPNGHFLTIGLLSGIQVNWAEIVTKAKVHANIFHLRHWNDEVSPYKWQETFRHLIRLVENEQLRFMKVHSTYELADVKAAVDVVQSAEKTKGKVFLTSYEGHHHHHH | soluble
MDGYEEYTVLKEWEKTHKNEEIYSIRFGGNYMIDMKDGIKLSTDVYLPDFVDSAKKAPTILMRTPYGKENDKEIYYKYVQRGYAVVIQDVRGRNESEGKWEPMIHEREDGDSTINWIVSQEWSSGIVGMLGASYLGYVQWAAASSGNKHLKALVSIVTSGSPFIDIPRKGGAFVSGMLAWAFMVSRNKVDRSKMVRDDWDDVLNIRPIENIPVEALGYRIEFLEEWLKRVEKDEYWDLMDWHLQKDKINVPALVVSGWYDDNSMGTTEALDVIKDYEKGKRKAILGPWMHNSNTLRDINGISLGNSSLRYDLDYNYLLWFDKYLKGIENNIDTTAPVEYYSVGSNKWKTEE | not soluble
MGSDKIHHHHHHMDIRQLTYFIAVAEAKNYSRAAKSLFVTQPTLSQSIKKLEAELNTILFLQNGRQLALTEAGEILYEKGQLLMTNVNQMVTEIQQLNQEKKEGIRVGLTSLFAIQFMKQISTFMATHSNVEVSLIQDGSRKLQELLAKGKIDIGLLSFPSTRNDITIEPLQTSTKGYKVSIVMPKSHPLATLPEIELNDLRDYKVASLNEHYMLGEMLPRKCRALGFDPHIVFKHNDWEVLIHSLQDLNAVTILPSEFESISQVQDLCWVPLKDKNNFYPIGIAYRNDTSFSPMIEEFLSLLKTN | not soluble
INDPAKSAAPYHDEFPLFRSANMASPDKLSTGIGFHSFRIPAVVRTTTGRILAFAEGRRHTNQDFGDINLVYKRTKTTANNGASPSDWEPLREVVGSGAGTWGNPTPVVDDDNTIYLFLSWNGATYSQNGKDVLPDGTVTKKIDSTWEGRRHLYLTESRDDGNTWSKPVDLTKELTPDGWAWDAVGPGNGIRLTTGELVIPAMGRNIIGRGAPGNRTWSVQRLSGAGAEGTIVQTPDGKLYRNDRPSQKGYRMVARGTLEGFGAFAPDAGLPDPACQGSVLRYNSDAPARTIFLNSASGTSRRAMRVRISYDADAKKFNYGRKLEDAKVSGAGHEGGYSSMTKTGDYKIGALVESDFFNDGTGKNSYRAIIWRRFNLSWILNGPNN | soluble
MKSEPDTFSIDDLERVGTEPWNGVRNYQARNFMRDGMHVGDGVFFYHSNCKVPGIVGIAKVASAAYPDDTQFDPSSDYHDPKSTREDPRWMLVDVAFERKLTRTISLDEIKQQADALGEGFPLIARGNRLSILPVTAAQWKVLLAMELEHHHHHH | not soluble
MTFAGIDVSKTHLDLALVSNSPKPTRLRFPNSPEGRQALLAALAHHNPAWVALEPTSAYHLPLLKLLAENRLQVALVNPYHLAAFRKAKGERQKTDRQDALLLARYAQVYHEDLRAYTLPPETLRELKALVGYREDLAGRERTILNQMEAAEWAGSKEVLALLQKELACVKGLLGEVEARIQALLATLPEAEVLMALPGVGPQVAAAVLALLPPELWGRAKRAASYAGLIPEREESGKSVERSRLSKKGPPLLRRKLYMGALVAVRHDPEMRAFYHRLLSRGKRKKQALVAVAHKLLRRMMGRLREYYATQLDQGVA | soluble
MAHLSYWFKQALELEQPQPAKPLNEDIAADVAIIGGGYTGLWTAIMIKQQAPKKHVVVIEKGLCGSGASGANGGCMLTWSTKFPTLKRLFGEAQAAWLVKESEQAVLEIDAFCKQHHIDAQLSLKGVYYTATNHVQAGSMQPVVDELSRLGVNSWRRCKEDELHANTGSPRHLEGFHSSVAASVQPALLARGLRRVALEMGIEIFENTPMTKLDFGQPATVSTPDAQIKAKQVVLALNAWMVEHFTQFKNSIVVVSSDMVITKPLGESLRKTGWQAGTSVLDSRIFVHYYRDTPDGRLMLGKGGNQFSFNNQVDVMFNKPTRYQNLLRKSFDKLFPSLKEAEFEYSWTGGSDRSTSGFPFFGKLNEQRNVFYGFGYSGNGVAQTRMGGKILSSMVLGLDNEWTRSGLAKGPLGHFPPEPFRWIGAMTVRNAVRRKEEAEDCGQKPFIWDKWLAKLAGPAGKADKLDLEHHHHHH | soluble
MAHHHHHHMDKAKTLEVLRGMKFMQRKEEAKRRAAFEVAQRDEIERQLLHPGTGSSGASGGVSDGGSSALRDRGGGGPVRATVLYDDSFPTHAYSLSRRSFTETLGGGGAIPVAAGLGDTDAHLEGSAVESRVSLKDVGEAQASADAALDDSDVASDEEVADLWGGEDAEGELNDPTAASDRRNQGVKRTRDRRGDRNQHACSDGRFIVKPSLRAPKLPRRLQETVAEQKRQRAEEEGDMNM | soluble
MRWVKAGELPMEAAYGATVSLPDRLIFIGGSNSSDRFSSVLSFSFDCMKDSGLICETLPPLPHAVDNMSATLLGDTLYVLGGNRNGIPSSSMFSLCLDNYSAGWTEVPFPGRPRVQPVCSSLLGKLYVFGGFTSGGDASVSTDGLCYHPESGQWQVVKAPLTTKGEPLTLTGGASVSYGDVLLICAGGVNRDIFEDAISARYQMVRESEYLLQPIEWYRFNDQLLAYNVRSGEWIRIGVPSPMLARAGSSLVVFGDILFYIGGELKPGVLEHHHHHH | not soluble
